Article PMC9568494, “A portable electrochemiluminescence aptasensor for β-lactoglobulin detection”

Target: T1, beta-lactoglobulin (β-LG) (Bos taurus (cow)?, UniProt P02754 17-178)
T1 sequence: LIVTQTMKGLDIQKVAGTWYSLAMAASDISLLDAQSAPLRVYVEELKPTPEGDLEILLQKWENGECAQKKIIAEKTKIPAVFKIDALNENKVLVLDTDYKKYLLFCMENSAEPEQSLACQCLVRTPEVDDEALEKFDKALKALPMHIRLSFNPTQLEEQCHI
Test: electrochemical (chronoamperometric) titration on gold screen-printed electrode, immobilized β-LG, streptavidin-HRP/TMB; 2 mM MgCl2 in BS-LG selection buffer; aptamer 40-100 nM; Kd read as inflection point; Kd assay: BS-LG, 50 mM Tris pH 7.4, 150 mM NaCl, 2 mM MgCl2 (wash and HRP step; aptamer diluent not stated), 30 min incubation, temperature not stated
Details: protein: commercial; chain copies: 2; label: 5'-biotin

B1: BLG14 aptamer (ssDNA)
DNA: GACGATCGGACCGCAGTACCCACCCACCAGCCCCAACATCATGCCCATCCGTGTGTG
- Kd: 56 nM
